Experimental data reported in US11911450B2, “Method for managing pain” (UNIVERSITY OF MIAMI, priority 2017, dated 2024).
“Also recorded” adds a separate entry of the source.

Assays:
[1] = tested on: ITPR1 phosphorylation (pITPR1) at Ser-1755; experiment: forskolin-induced ITPR1 phosphorylation (pITPR1) in transfected HEK293 cells; assay type: cell-based, human; details: 1 μM forskolin; for forskolin-induced ITPR1 phosphorylation (pITPR1), western blot: overexpression vs empty vector; for pITPR1 by IHC in response to forskolin: vs empty vector (AAV-null)
Method: Cell culture and transfections: Human neuronal-derived (e.g., NBL), human non-neuronal derived (e.g., HEK293) cells, or dispersed rodent primary DRG cells can be used. HEK293 cells (cat #CRL-1573 ATCC Manassas, VA) were cultured in Dulbecco's modified Eagle's medium (DMEM-Glutamax cat #0566; Invitrogen) supplemented with 10% fetal bovine serum, FBS (cat #16140 ThermoFisher scientific, Waltham, MA) and 1% penicillin/streptomycin (cat #15140 ThermoFisher scientific, Waltham, MA). Cells were seeded in six-well plates at density of 1.0×10^5 cells per well. The following day, cells were transfected with plasmids via lipofectamine LTX reagent and plus (cat #15338 ThermoFisher scientific, Waltham, MA). For each transfection 2 μg of AAV2-ITR (control), AAV2-V5-Car10, or AAV2-V5-CA10 vectors was used. In various embodiments of the disclosure described herein, 2 μg of expression vectors (including positive and negative controls) in instances when AAV2 is not the viral vector employed.
Immunohistochemistry (IHC): HEK293 cells were seeded in poly-L-Lysine/laminin coated glass coverslips at a density of per coverslip, 24 hrs later cells were transfected with Car10, CA10 or empty vector respectively. Cells were cultured at 37° C. for an additional 96 hrs, then treated with forskolin 1 μM (F6886 Sigma, St. Louis, MO) for 5 min, then fixed with 4% paraformaldehyde for 15 min, permeabilized with 0.1% Triton X-100 for 10 min, and blocked with 1% bovine serum albumin (BSA, sigma) for 1 h. Cells were then incubated with anti-pITPR1 (cat #8548s cell signaling technology), anti-Car10 (cat #SAB1102286 Sigma, St Louis, MO), anti-V5 (cat #R960 Invitrogen), anti-ITPR1 (cat #8568 Cell Signaling technology) antibody overnight at 4° C. The next day, cells were incubated with the corresponding second antibody (1:200) for 1 h at room temperature in the dark. Coverslips were dried and affixed to slides using a fluorescent mounting medium containing Dapi (cat #P36931 Life Technologies). It will be understood that IHC methods also are contemplated using anti-Car8, anti-CA8, anti-CA8 fragment (CA8-204), anti-CA10, anti-Car11 and anti-CA11 antibodies.
HEK293 cells were transfected using AAV8-V5 vectors overexpressing Car10 and CA10, an empty vector and vehicle served as controls. A V5 sequence was inserted at the Car10 or CA10 C-terminal region in order to differentiate between exogenous and endogenous CA10/Car10 expression. […] Using the V5 tag, protein overexpression was detected following V5-Car10 and V5-CA10 vector transfection (FIG. 1B).
In order to examine the role of CA10 in the regulation of ITPR1 phosphorylation (pITPR1) that enhances the response of ITPR1 to the IP3 ligand, HEK293 cells were transfected with AAV8-V5-CA10 vectors. […]

[2] = tested on: RYR-dependent calcium release; experiment: 5HT-induced RYR-dependent cytoplasmic calcium release in NBL cells (Fura2 imaging); assay type: cell-based, human; details: 50 μM 5HT, vs empty vector
Method: Pharmacodynamics—Bioassay of Calcium Release: Fifteen mm glass coverslips (cat #72228 Electron Microscopy Sciences, Hatfield, PA) were coated with poly-D-Lysine (Sigma) followed by Laminin and 1×10^5 cells were seeded on each coverslip. Twenty-four hrs later, cells were transfected with AAV2-ITR, AAV2-V5-Car10, or AAV2-V5-CA10 vectors as previously described. In embodiments wherein AAV2 is not employed, other expression vectors (including viral vectors) are used. Fura-2AM (cat #F1221 ThermoFisher scientific, Waltham, MA) was dissolved in DMSO (50 μg in 50 μl) and 1% pluronic acid-127 (cat #P2443 Sigma, St Louis, MO) as the stock solution. Forty eight hrs after seeding, cells were loaded with 2 μM Fura-2AM dye for 45 min at room temperature in the dark in a standard Ca+2 buffer solution containing: 125 mM NaCl, 2 mM MgCl, 4.5 mM KCl, 10 glucose, 20 mM HEPES, 2 mM CaCl2, pH 7.4.25. Following dye loading, coverslips were washed with Ca^+2 buffer solution. […] Regions of interest over the field of view were selected and the mean pixels intensity at each frame was measured. Data was plotted as ratio fluorescence intensity versus time and subsequently converted to a relative scale.
It was also determined that 5HT-induced RYR-dependent calcium release in NBL cells is inhibited by ryanodine. […]

RYR1 = target: T1, RYR1 (Homo sapiens, UniProt P21817); experiment: immunoprecipitation (anti-RYR1) and western blot (anti-V5) in NBL cells; assay type: binding; details: 48 h after transfection
T1 construct: NBL cells were transfected with AAV-V5-CA10 and AAV-V5-Car10 using Lipofectamin (LTX); endogenous in cells; host or cells: NBL cells transfected with V5-CA10 / V5-Car10 only
T1 sequence (P21817 whole entry): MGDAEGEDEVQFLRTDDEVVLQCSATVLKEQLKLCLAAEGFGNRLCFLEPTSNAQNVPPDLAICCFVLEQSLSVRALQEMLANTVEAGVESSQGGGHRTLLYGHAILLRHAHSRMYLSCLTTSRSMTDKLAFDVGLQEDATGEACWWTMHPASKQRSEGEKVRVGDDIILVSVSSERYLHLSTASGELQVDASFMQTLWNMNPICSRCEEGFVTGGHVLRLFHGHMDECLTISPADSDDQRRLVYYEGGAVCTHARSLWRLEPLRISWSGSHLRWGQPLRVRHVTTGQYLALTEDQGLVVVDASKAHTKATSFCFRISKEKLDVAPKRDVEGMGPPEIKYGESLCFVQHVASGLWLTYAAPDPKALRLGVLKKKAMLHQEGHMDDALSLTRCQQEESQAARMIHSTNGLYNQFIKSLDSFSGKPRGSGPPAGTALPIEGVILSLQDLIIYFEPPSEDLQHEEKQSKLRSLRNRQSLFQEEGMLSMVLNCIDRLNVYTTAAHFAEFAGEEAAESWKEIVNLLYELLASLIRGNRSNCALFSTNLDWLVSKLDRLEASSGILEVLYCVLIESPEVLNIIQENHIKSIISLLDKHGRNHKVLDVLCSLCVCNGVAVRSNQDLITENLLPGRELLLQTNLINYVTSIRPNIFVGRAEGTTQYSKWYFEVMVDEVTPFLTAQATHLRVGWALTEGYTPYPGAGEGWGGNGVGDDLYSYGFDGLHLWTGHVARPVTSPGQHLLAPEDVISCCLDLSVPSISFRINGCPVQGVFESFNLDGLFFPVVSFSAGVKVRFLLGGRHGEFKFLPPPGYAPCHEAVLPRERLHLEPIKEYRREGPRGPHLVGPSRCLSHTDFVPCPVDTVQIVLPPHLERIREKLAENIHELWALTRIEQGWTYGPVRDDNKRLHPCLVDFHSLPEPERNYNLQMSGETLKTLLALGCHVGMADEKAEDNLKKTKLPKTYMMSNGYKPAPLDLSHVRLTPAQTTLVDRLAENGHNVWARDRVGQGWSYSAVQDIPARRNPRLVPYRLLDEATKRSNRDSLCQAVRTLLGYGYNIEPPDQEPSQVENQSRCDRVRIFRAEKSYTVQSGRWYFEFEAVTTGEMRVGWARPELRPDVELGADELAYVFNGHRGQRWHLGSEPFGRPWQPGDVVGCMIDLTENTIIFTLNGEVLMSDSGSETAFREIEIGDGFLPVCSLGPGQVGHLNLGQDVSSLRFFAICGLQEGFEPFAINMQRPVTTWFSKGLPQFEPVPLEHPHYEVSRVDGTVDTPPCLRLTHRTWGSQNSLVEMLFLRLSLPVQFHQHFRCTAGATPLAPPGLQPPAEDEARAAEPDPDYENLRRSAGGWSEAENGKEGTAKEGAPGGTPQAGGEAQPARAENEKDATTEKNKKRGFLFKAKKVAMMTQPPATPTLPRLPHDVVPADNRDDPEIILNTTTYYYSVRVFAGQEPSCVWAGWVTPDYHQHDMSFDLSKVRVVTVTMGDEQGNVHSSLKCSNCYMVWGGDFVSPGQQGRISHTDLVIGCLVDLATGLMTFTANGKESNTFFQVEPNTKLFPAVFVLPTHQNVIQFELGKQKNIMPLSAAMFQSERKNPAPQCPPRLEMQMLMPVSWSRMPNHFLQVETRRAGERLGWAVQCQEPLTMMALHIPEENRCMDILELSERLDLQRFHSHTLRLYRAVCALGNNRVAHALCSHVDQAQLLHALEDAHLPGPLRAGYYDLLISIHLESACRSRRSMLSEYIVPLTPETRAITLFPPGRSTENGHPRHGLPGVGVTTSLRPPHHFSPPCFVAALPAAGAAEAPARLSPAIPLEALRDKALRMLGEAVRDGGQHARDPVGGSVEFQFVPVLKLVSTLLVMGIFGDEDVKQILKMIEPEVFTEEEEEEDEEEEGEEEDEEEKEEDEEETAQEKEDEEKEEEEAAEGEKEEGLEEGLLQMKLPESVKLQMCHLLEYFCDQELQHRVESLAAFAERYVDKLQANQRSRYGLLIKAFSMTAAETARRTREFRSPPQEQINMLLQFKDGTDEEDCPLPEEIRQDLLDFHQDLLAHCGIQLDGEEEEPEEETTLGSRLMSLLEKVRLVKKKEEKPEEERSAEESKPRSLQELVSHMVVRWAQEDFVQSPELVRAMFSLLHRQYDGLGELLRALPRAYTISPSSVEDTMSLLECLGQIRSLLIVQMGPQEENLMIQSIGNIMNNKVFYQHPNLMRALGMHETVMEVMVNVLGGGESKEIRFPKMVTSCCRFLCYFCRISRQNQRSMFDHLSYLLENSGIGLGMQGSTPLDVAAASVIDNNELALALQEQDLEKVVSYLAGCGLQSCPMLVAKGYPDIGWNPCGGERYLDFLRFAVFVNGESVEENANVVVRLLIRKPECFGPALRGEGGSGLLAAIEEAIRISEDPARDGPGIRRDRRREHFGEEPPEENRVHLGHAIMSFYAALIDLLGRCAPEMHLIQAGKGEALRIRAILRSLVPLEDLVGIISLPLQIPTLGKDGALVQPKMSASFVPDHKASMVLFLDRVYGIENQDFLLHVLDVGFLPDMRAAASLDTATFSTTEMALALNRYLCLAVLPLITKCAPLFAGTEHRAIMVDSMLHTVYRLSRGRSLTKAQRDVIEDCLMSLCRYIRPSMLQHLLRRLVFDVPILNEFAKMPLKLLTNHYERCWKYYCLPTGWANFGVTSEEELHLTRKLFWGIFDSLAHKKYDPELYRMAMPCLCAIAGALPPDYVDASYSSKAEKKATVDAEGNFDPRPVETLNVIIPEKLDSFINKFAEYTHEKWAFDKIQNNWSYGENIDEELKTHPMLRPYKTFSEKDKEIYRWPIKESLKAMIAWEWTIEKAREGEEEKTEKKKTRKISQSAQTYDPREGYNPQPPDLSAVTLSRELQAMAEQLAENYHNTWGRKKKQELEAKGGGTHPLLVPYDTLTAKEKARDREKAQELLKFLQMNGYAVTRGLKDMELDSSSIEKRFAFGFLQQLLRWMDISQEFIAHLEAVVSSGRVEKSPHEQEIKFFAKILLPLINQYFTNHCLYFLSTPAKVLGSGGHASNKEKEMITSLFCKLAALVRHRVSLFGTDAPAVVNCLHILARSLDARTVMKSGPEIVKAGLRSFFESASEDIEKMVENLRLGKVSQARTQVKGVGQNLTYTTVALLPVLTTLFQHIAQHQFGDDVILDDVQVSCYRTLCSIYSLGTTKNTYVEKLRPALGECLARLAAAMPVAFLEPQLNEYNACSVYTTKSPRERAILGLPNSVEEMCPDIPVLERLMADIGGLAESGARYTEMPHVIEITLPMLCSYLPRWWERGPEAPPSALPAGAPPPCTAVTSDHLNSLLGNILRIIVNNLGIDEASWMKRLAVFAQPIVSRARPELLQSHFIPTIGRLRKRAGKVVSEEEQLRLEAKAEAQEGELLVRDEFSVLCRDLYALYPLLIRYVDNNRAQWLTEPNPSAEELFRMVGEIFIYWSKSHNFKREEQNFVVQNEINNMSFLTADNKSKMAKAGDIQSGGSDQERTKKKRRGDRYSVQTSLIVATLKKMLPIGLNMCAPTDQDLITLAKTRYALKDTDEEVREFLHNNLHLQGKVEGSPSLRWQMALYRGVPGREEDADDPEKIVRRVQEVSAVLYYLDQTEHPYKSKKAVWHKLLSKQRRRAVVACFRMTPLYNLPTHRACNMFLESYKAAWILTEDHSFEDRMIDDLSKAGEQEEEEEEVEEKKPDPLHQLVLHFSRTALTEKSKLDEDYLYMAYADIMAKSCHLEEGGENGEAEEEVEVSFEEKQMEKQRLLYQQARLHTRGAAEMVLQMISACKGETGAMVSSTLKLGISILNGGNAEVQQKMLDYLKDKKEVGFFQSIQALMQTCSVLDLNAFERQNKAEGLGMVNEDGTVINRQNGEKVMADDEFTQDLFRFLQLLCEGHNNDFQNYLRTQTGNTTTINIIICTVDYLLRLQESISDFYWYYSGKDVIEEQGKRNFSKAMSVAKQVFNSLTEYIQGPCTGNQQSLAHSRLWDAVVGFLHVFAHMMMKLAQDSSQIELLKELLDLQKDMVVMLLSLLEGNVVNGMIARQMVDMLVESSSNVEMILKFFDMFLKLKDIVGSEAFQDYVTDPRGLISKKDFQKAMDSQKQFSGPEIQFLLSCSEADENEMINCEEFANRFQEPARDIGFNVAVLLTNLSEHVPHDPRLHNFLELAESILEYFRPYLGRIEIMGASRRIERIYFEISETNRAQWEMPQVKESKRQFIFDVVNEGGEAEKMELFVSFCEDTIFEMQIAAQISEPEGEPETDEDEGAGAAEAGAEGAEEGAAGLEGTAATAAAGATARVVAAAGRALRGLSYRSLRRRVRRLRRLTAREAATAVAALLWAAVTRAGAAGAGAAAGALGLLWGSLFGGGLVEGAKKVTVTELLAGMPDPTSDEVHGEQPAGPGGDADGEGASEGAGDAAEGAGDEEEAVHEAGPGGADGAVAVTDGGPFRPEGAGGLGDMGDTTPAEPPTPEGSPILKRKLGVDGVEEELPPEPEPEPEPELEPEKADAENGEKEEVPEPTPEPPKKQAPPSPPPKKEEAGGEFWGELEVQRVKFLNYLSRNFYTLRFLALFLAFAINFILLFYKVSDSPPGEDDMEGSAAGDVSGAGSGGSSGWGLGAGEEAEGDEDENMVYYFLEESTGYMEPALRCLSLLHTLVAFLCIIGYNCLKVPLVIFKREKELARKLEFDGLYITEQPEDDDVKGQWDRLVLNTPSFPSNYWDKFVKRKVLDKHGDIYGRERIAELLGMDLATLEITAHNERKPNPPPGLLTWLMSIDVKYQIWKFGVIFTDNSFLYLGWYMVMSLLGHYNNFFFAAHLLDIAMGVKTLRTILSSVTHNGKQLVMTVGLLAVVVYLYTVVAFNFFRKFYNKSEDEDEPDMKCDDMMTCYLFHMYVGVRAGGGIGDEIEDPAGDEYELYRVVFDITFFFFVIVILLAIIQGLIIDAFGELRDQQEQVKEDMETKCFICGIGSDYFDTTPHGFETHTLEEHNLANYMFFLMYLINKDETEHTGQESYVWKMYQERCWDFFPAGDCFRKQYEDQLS
Method: NBL cells were transfected with AAV-V5-CA10 and AAV-V5-Car10 using Lipofectamin (LTX). Cellular protein was extracted 48 h after transfection.
Immunoprecipitation (IP) and western blotting (WB) was utilized to detect binding. Rabbit anti-RYR1 was used for IP and chicken anti-V5 was used for WB analyses. About 1/10 of the IP protein was used for WB to show the V5 labeled CA10 or Car10 by WB. B-actin was used as a loading control. See FIG. 33, which establishes co-immunoprecipitation of CA10 and RYR.

Molecule | forskolin-induced ITPR1 phosphorylation (pITPR1), western blot [1] | pITPR1 by IHC in response to forskolin [1] | 5HT-induced cytoplasmic calcium release, effect of overexpression ([2]; listed as V5-Car10) | binding to RYR1 (co-immunoprecipitation) (RYR1) | 5HT-induced cytoplasmic calcium release, effect of overexpression ([2]; listed as V5-CA10)
Car10: carbonic anhydrase 10, rodent ortholog, overexpressed (V5-tagged) protein (protein, left off: small tags and cut ends, carbonic anhydrase 10, rodent ortholog, overexpressed (V5-tagged) protein) MEIVWEVLFLLQANFIVCISAQQNSPKIHEGWWAYKEVVQGSFVPVPSFWGLVNSAWNLCSVGKRQSPVNIETSHMIFDPFLTPLRINTGGRKVSGTMYNTGRHVSLRLDKEHLVNISGGPMTYSHRLEEIRLHFGSEDSQGSEHLLNGQAFSGEVQLIHYNHELYTNVTEAAKSPNGLVVVSIFIKVSDSSNPFLNRMLNRDTITRITYKNDAYLLQGLNIEELYPETSSFITYDGSMTIPPCYETASWIIMNKPVYITRMQMHSLRLLSQNQPSQIFLSMSDNFRPVQPLNNRCIRTNINFSLQGKDCPNNRAQKLQYRVNEWLLK | reduced forskolin-induced ITPR1 phosphorylation; also recorded: inhibited forskolin-induced pITPR1 | no increase in pITPR1 | inhibited; also recorded: inhibits 50 μM 5HT-induced cytoplasmic calcium release | binds | –
CA10: human carbonic anhydrase 10, overexpressed (V5-tagged) protein; SEQ ID NO: 9 (protein, V5 tag) MEIVWEVLFLLQANFIVCISAQQNSPKIHEGWWAYKEVVQGSFVPVPSFWGLVNSAWNLCSVGKRQSPVNIETSHMIFDPFLTPLRINTGGRKVSGTMYNTGRHVSLRLDKEHLVNISGGPMTYSHRLEEIRLHFGSEDSQGSEHLLNGQAFSGEVQLIHYNHELYTNVTEAAKSPNGLVVVSIFIKVSDSSNPFLNRMLNRDTITRITYKNDAYLLQGLNIEELYPETSSFITYDGSMTIPPCYETASWIIMNKPVYITRMQMHSLRLLSQNQPSQIFLSMSDNFRPVQPLNNRCIRTNINFSLQGKDCPNNRAQKLQYRVNEWLLK | reduced forskolin-induced ITPR1 phosphorylation; also recorded: inhibited forskolin-induced pITPR1 | no increase in pITPR1 | – | co-immunoprecipitation; also recorded: binds | inhibited; also recorded: inhibits 50 μM 5HT-induced cytoplasmic calcium release
